Blank lines part the entries; values can stand above or below the substance they belong to.
Key:
[1] = target: AncSR1-LBD 184E (dimerization-interface mutant with a non-historical charge-repulsion mutation); assay: native MS
[2] = target: AncSR1-LBD L180F/A181Y/M185K (dimerization-interface mutant with three historical substitutions); assay: native MS
[3] = target: AncSR1-LBD fused to the CTE of AncSR2-LBD; assay: SEC-MALS

fold increase of Kd against AncSR1-LBD [1]: > 20 fold
Substance: AncSR1-LBD 184E (dimerization-interface mutant with a non-historical charge-repulsion mutation) (domain or fragment)

fold increase of Kd against AncSR1-LBD [2]: > 20 fold
Substance: AncSR1-LBD L180F/A181Y/M185K (dimerization-interface mutant with three historical substitutions) (domain or fragment)

stoichiometry N [3]: 2
Substance: AncSR1-LBD fused to the CTE of AncSR2-LBD (domain or fragment)

From PMC8168016
